Experimental data: patent publication US20060252140A1

Target: hyperactive SB transposase mutant HSB5
Test: cell-based or functional assay

integration frequency against cells containing the E2C/SB-5 fusion protein without the limiting amount of HSB5 (142 colonies): 4 fold
integration frequency against cells expressing the same limiting amount of HSB5 transposase alone (58 colonies): 10 fold
Substance: E2C/SB-5 fusion protein
